Data: US20110263454A1, “Methods of Identifying Functional Characteristics of Promoters, Transcription Modifying Proteins and Transcription Modulating Agents” (Salk Institute for Biological Studies, priority 2008, published 2011)

B1: HNF4a: Hepatocyte Nuclear Factor α (NR2A1), cDNA driver (protein, UniProt P41235 1-474, looked up)
Hepatocyte nuclear factor …: MRLSKTLVDMDMADYSAALDPAYTTLEFENVQVLTMGNDTSPSEGTNLNAPNSLGVSALCAICGDRATGKHYGASSCDGCKGFFRRSVRKNHMYSCRFSRQCVVDKDKRNQCRYCRLKKCFRAGMKKEAVQNERDRISTRRSSYEDSSLPSINALLQAEVLSRQITSPVSGINGDIRAKKIASIADVCESMKEQLLVLVEWAKYIPAFCELPLDDQVALLRAHAGEHLLLGATKRSMVFKDVLLLGNDYIVPRHCPELAEMSRVSIRILDELVLPFQELQIDDNEYAYLKAIIFFDPDAKGLSDPGKIKRLRSQVQVSLEDYINDRQYDSRGRFGELLLLLPTLQSITWQMIEQIQFIKLFGMAKIDNLLQEMLLGGSPSDAPHAHHPLHPHLMQEHMGTNVIVANTMPTHLSNGQMCEWPRPRGQAATPETPQPSPPGGSGSEPYKLLPGAVATIVKPLSAIPQPTITKQEVI
B2: LXRb: Liver X Receptor β (NR1H2), cDNA driver (protein, UniProt P55055 1-460, looked up)
Oxysterols receptor LXR-beta: MSSPTTSSLDTPLPGNGPPQPGAPSSSPTVKEEGPEPWPGGPDPDVPGTDEASSACSTDWVIPDPEEEPERKRKKGPAPKMLGHELCRVCGDKASGFHYNVLSCEGCKGFFRRSVVRGGARRYACRGGGTCQMDAFMRRKCQQCRLRKCKEAGMREQCVLSEEQIRKKKIRKQQQESQSQSQSPVGPQGSSSSASGPGASPGGSEAGSQGSGEGEGVQLTAAQELMIQQLVAAQLQCNKRSFSDQPKVTPWPLGADPQSRDARQQRFAHFTELAIISVQEIVDFAKQVPGFLQLGREDQIALLKASTIEIMLLETARRYNHETECITFLKDFTYSKDDFHRAGLQVEFINPIFEFSRAMRRLGLDDAEYALLIAINIFSADRPNVQEPGRVEALQQPYVEALLSYTRIKRPQDQLRFPRMLMKLVSLRTLSSVHSEQVFALRLQDKKLPPLLSEIWDVHE
B3: RORa: RAR-related Orphan Receptor α (NR1F1), cDNA driver (protein, UniProt P35398 1-523, looked up)
Nuclear receptor ROR-alpha: MESAPAAPDPAASEPGSSGADAAAGSRETPLNQESARKSEPPAPVRRQSYSSTSRGISVTKKTHTSQIEIIPCKICGDKSSGIHYGVITCEGCKGFFRRSQQSNATYSCPRQKNCLIDRTSRNRCQHCRLQKCLAVGMSRDAVKFGRMSKKQRDSLYAEVQKHRMQQQQRDHQQQPGEAEPLTPTYNISANGLTELHDDLSNYIDGHTPEGSKADSAVSSFYLDIQPSPDQSGLDINGIKPEPICDYTPASGFFPYCSFTNGETSPTVSMAELEHLAQNISKSHLETCQYLREELQQITWQTFLQEEIENYQNKQREVMWQLCAIKITEAIQYVVEFAKRIDGFMELCQNDQIVLLKAGSLEVVFIRMCRAFDSQNNTVYFDGKYASPDVFKSLGCEDFISFVFEFGKSLCSMHLTEDEIALFSAFVLMSADRSWLQEKVKIEKLQQKIQLALQHVLQKNHREDGILTKLICKVSTLRALCGRHTEKLMAFKAIYPDIVRLHFPPLYKELFTSEFEPAMQIDG
B4: RORg: RAR-related Orphan Receptor γ (NR1F3), cDNA driver (protein, UniProt P51449 1-518, looked up)
Nuclear receptor ROR-gamma: MDRAPQRQHRASRELLAAKKTHTSQIEVIPCKICGDKSSGIHYGVITCEGCKGFFRRSQRCNAAYSCTRQQNCPIDRTSRNRCQHCRLQKCLALGMSRDAVKFGRMSKKQRDSLHAEVQKQLQQRQQQQQEPVVKTPPAGAQGADTLTYTLGLPDGQLPLGSSPDLPEASACPPGLLKASGSGPSYSNNLAKAGLNGASCHLEYSPERGKAEGRESFYSTGSQLTPDRCGLRFEEHRHPGLGELGQGPDSYGSPSFRSTPEAPYASLTEIEHLVQSVCKSYRETCQLRLEDLLRQRSNIFSREEVTGYQRKSMWEMWERCAHHLTEAIQYVVEFAKRLSGFMELCQNDQIVLLKAGAMEVVLVRMCRAYNADNRTVFFEGKYGGMELFRALGCSELISSIFDFSHSLSALHFSEDEIALYTALVLINAHRPGLQEKRKVEQLQYNLELAFHHHLCKTHRQSILAKLPPKGKLRSLCSQHVERLQIFQHLHPIVVQAAFPPLYKELFSTETESPVGLSK

How the values were obtained:
RevErba promoter = experiment: NHR-promoter luciferase screen, RevErba (RVRa) promoter; type: cell-based; design: key to mRevErba promoter reporter activity / Normalized Luc. act., normalized to control: luciferase activity normalized to lacZ and to control (no NHR/ligand); settings: for Luc. act., normalized to lacZ / Normalized Luc. act., normalized to control: HR component without or with ligand; for normalized Luc. act. on a logarithmic scale (column without head, Table 33): log10 of activity normalized to control; for mRevErba promoter reporter activity: transcription factor +/- ligand, control = 1.00
Description: Briefly, there were co-expressed 50 ng of each NHR/NHR homodimer or NHR/RXR heterodimer with 100 ng promoter/luciferase construct and 50 ng of LacZ (as a control for transfection efficiency) in CV-1 cells using Fugene HD (Roche) as a transfection reagent (alternatively or additionally, a CMV-YFP construct can be used as a transfection control). Each of the nuclear hormone receptors that were used in these experiments was cloned into a pcDNA3.1 vector and comprised a C-terminally linked V5H6 tag.
(§1) The promoters that facilitate transcription of the indicated gene products that were tested using the protocols described herein are listed in the first row of the table. The nuclear hormone receptors and, where applicable, ligands that were assayed for their transcriptional effects on the promoters are listed in the first column of the table. The data represent the luciferase activity of each sample normalized to both the lacZ activity of that sample and to a control, e.g., no NHR or ligand, as customary in the art. As described previously, these normalizations allow the transcriptional activity of each reporter cell to be compared to other samples.
The control data of each table are shown in their last rows.

mDio1 promoter = experiment: NHR-promoter luciferase screen, mDio1 promoter; type: cell-based, mouse; settings: for Luc. act., normalized to lacZ / Normalized Luc. act., normalized to control: Dio1, HR component without or with its ligand; for mDio1 promoter reporter activity: transcription factor +/- ligand, control = 1.00
Description: (§2) The use, feasibility, and reproducibility of the functional NHR-promoter screen in a 48-well format have been tested validated. Briefly, there were co-expressed 50 ng of each NHR/NHR homodimer or NHR/RXR heterodimer with 100 ng promoter/luciferase construct and 50 ng of LacZ (as a control for transfection efficiency) in CV-1 cells using Fugene HD (Roche) as a transfection reagent (alternatively or additionally, a CMV-YFP construct can be used as a transfection control). Each of the nuclear hormone receptors that were used in these experiments was cloned into a pcDNA3.1 vector and comprised a C-terminally linked V5H6 tag. Twenty-four hours after transfection, appropriate ligands were added, where applicable, (see Table 5 for various ligands and concentrations and after 48 hrs, samples were assayed for luciferase and LacZ activity. To measure for luciferase activity 15 ul of sample was added to 30 ul of luciferase buffer (20 mM tricine, 1.07 mM MgCarbonate, 2.67 mM MgSulfate, 0.1 mM Naz-EDTA, 5 mM DTT, 5 mM ATP, 0.15 mg/ml CoA, 0.5 mM Luciferin), mixed briefly, and run in a Perkin Elmer Victor 5 luminometer. Thus, the functional NHR-promoter screen was used to observe the transcriptional activity of 29 promoters from various physiological pathways including inflammation, lipid and sugar metabolism, cholesterol transport, xenobiotic metabolism, and circadian rhythm.
as §1
(§3) Tables 7-40 show the transcriptional effects of the hormone receptors, and, where applicable, ligands (orphan receptors are screened without ligand), on each individual promoter. […] The control data of each table are shown in their last rows.

mDio2 promoter = experiment: NHR-promoter luciferase screen, mDio2 promoter; type: cell-based, mouse; settings: for Luc. act., normalized to lacZ / Normalized Luc. act., normalized to control: Dio2, HR component without or with its ligand; for mDio2 promoter reporter activity: transcription factor +/- ligand, control = 1.00
Description: as §2, §1, §3

mCAR promoter = experiment: NHR-promoter luciferase screen, mCAR promoter; type: cell-based, mouse; settings: for luciferase activity normalized to lacZ activity and to a control, mCAR: mCAR promoter-luciferase, CV-1 cells, NHR +/- ligand, control = 1.00; for Luc. act., normalized to lacZ / Normalized Luc. act., normalized to control: mCAR promoter, HR/ligand component
Description: as §2, §1, §3

mPOMC promoter = experiment: NHR-promoter luciferase screen, mPOMC promoter; type: cell-based, mouse; settings: for Results of assays of transcription factor (+/- ligand) with mPOMC: Table 6d, luciferase activity relative to control (control = 1.00); for Luc. act., normalized to lacZ / Normalized Luc. act., normalized to control: mPOMC promoter, HR component with or without ligand; for Normalized Luc. act., normalized to control: relative to control
Description: as §2, §1, §3

Molecule	Luc. act., normalized to lacZ (RevErba promoter; RVRa promoter)	Normalized Luc. act., normalized to control (RevErba promoter; RVRa promoter)	negative reciprocal of normalized Luc. act. (fold repression; Table 33) (RevErba promoter; RVRa promoter, given only where activity is below control)	normalized Luc. act. on a logarithmic scale (column without head, Table 33) (RevErba promoter; RVRa promoter)	mRevErba promoter reporter activity (RevErba promoter)	Luc. act., normalized to lacZ (mDio1 promoter)	Normalized Luc. act., normalized to control (mDio1 promoter)	mDio1 promoter reporter activity (mDio1 promoter)	Luc. act., normalized to lacZ (mDio2 promoter)	Normalized Luc. act., normalized to control (mDio2 promoter)	mDio2 promoter reporter activity (mDio2 promoter)	luciferase activity normalized to lacZ activity and to a control, mCAR (mCAR promoter)	Luc. act., normalized to lacZ (mCAR promoter)	Normalized Luc. act., normalized to control (mCAR promoter)	Results of assays of transcription factor (+/- ligand) with mPOMC (mPOMC promoter)	Luc. act., normalized to lacZ (mPOMC promoter)	Normalized Luc. act., normalized to control (mPOMC promoter)	regulation of the Constitutive Androstane Receptor (CAR) promoter (mCAR promoter; FIG. 2a, in words)
TLX: Tailless (homolog of drosophila) (NR2E1), cDNA driver	13.5	0.5	−2.079	−0.32	0.48	8.4	1.9	1.88	9.5	0.6	0.60	0.39	15.0	0.4	0.74	51.1	0.7	–
B1	30.15	1.1	–	0.03	1.08	10.0	2.3	2.25	33.6	2.1	2.14	16.83	641.2	16.8	0.90	62.0	0.9	Specific and strong activation
B2	30.9	1.1	–	0.04	1.10	9.8	2.2	2.19	18.1	1.2	1.15	0.92	34.9	0.9	0.88	60.8	0.9	–
B3	86.91	3.1	–	0.49	3.11	2.1	0.5	0.47	47.2	3.0	3.01	0.55	20.9	0.5	2.08	143.4	2.1	–
B4	67.79	2.4	–	0.38	2.42	5.7	1.3	1.29	58.7	3.7	3.74	1.13	43.1	1.1	1.30	89.5	1.3	–
